Values of other authors in publication PMC4380812.

Molecular target: HdeA (Escherichia coli) (UniProt P0AES9)

Chain of HdeA (P0AES9 22-110): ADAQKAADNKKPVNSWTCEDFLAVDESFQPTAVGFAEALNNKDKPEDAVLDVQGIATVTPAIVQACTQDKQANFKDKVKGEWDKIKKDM

HdeA (from UniProt P0AES9)
Kd: 1 µM
